Earlier results, collected in article PMC3508151.
Read-outs that look alike come from different tables or passages of the source.

Columns and labels:
IL-13Rα1 (Homo sapiens) [1] = target: IL-13Rα1 (Homo sapiens) (UniProt P78552); details: cited from earlier work
IL-13Rα1 (Homo sapiens) [2] = target: IL-13Rα1 (Homo sapiens) (UniProt P78552); details: cited from earlier work; remark: listed apart in the source

IL-13Rα1 (Homo sapiens), sequence (P78552 22-343): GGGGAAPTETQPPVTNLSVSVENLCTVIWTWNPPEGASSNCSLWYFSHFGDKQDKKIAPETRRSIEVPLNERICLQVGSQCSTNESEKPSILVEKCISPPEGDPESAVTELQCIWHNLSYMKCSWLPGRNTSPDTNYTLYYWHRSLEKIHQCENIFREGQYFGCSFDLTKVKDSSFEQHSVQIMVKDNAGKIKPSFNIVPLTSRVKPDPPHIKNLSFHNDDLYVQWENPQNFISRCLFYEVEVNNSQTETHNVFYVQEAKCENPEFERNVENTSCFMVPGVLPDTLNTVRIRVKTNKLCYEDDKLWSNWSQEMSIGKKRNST
IL-13, sequence (P35225 25-146): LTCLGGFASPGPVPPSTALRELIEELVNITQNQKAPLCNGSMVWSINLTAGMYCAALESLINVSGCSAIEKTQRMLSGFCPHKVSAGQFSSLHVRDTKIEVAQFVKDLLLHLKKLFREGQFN
IL-4, sequence (P05112 25-153): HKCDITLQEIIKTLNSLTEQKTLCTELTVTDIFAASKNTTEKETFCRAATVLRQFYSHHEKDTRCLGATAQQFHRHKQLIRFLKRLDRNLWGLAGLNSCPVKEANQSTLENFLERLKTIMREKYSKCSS

Row | Substance | Kd (IL-13Rα1 (Homo sapiens) [1]) [nM] | Kd (IL-13Rα1 (Homo sapiens) [2]) [nM]
1 | IL-13 | 30 | –
2 | IL-4 (from UniProt P05112) | – | > 1000
